Where a chain is given by its changes, count along the chain named. Entries after “also recorded” stand apart in the source; their conditions may differ. Read-outs that look alike come from different tables or passages of the source.
How the values were obtained:
[1] = target: T1, human IGF-1R-ECD (Homo sapiens, UniProt P08069); assay: phage-competition ELISA (phage IC50); format: binding
T1 construct: containing the extracellular domain (ECD, amino acids 1-902) tagged with 10 or 12 histidine residues at the carboxyl terminus; His10 or His12 (C); made in house; host or cells: CHO cells
Description: MAXISORP™ microtiter plates were coated with human IGF-1R-ECD at 5 μg/ml in PBS overnight and then blocked with CASEIN BLOCKER™ reagent (Pierce Biotechnology, Inc.). Phage from culture supernatants were incubated with serially diluted IGF-1R-ECD in PBS with 0.05% TWEEN 20™ surfactant (PBST) containing 1% bovine serum albumin (BSA) in a tissue-culture microtiter plate for 1 hour, after which 80 μl of the mixture was transferred to the target-coated wells for 15 minutes to capture unbound phage. The plate was washed with PBST, and HRP-conjugated anti-M13 (Amersham Pharmacia Biotech) was added (1:5000 in PBST containing 1% BSA) for 40 minutes. The plate was washed with PBST and developed by adding tetramethylbenzidine (TMB) substrate (Kirkegaard and Perry Laboratories, Gaithersburg, Md.). The absorbance at 450 nm was plotted as a function of target concentration in solution to determine an IC50. […] For the humanized hybridoma-derived clones, 2B4, 9F2, and 10H5, phage-Fab was used.
This assay was conducted as described in Section 1-II-A-(4) of this Example. For the YW95-phage-derived clones from the VH/VL phage library, phage-Fab-Zip was used.

[2] = target: IGF-1R (Homo sapiens, UniProt P08069); assay: antibody-induced IGF-1R down-regulation in MCF7 cells, Western blotting; format: cell-based; set-up: IGF-1R is normally localized at the plasma membrane of MCF7 cells; endogenous in cells; host or cells: MCF7; conditions: 10 μg/ml, 1, 4, 8 or 24 hours, 10% serum
Description: Further exploration of the mechanism of action of anti-IGF-1R antibodies was carried out by testing the ability of the antibodies of the invention, particularly human chimeric antibodies of 2B4, 9F2, 10H5, as well as human phage antibody YW95.6, to induce IGF-1R down-regulation. MCF7 cells were treated with various antibodies (10 μg/ml) for 1, 4, 8, or 24 hours in the presence of 10% serum-containing medium. The cell lysates were harvested, separated by SDS-PAGE, and analyzed for IGF-1R levels by Western blotting using an anti-IGF-1R beta-chain antibody (Cell Signaling Technology, Inc.; Beverly, Mass., USA) or anti-beta-actin antibody.
In a separate experiment, MCF7 cells were treated with serially diluted h10H5, and the cell lysates were analyzed for IGF-1R and IR levels using anti-IGF-1R and anti-IR β-chain antibodies at 1, 2, 4, and 8 hours post-continuous treatment.

[3] = tested on: MCF7 cells; assay: cell viability assay ([…]-GLO), MCF7; format: cell-based, human
Description: The different cell lines were cultured in their respective culture media at 37° C. in a humidified atmosphere of 5% CO2. Subsequently, cells were detached from tissue-culture flasks using the cell-dissociation solution, TRIPLE SELECT™ solution (InVitrogen, Carlsbad, Calif., USA), and centrifuged at 1000 rpm for five minutes. Detached cells were washed once with PBS, counted, and seeded in 96-well plates (Corning, N.Y., USA) at 2000 cells per well in 100 μL of culture media. After an overnight incubation at 37° C. in a humidified atmosphere of 5% CO2, the cell-culture medium was replaced with 50 μL of starvation medium consisting of serum-free RPMI 1640™ medium without phenol red. The cells were then starved for five hours in the incubator before addition of 25 μL of each anti-IGF-1R monoclonal antibody at various dilutions in serum-free RPMI 1640™ phenol red-free media. Later, 25 μL of phenol red-free RPMI 1640™ media supplemented with 4% of fetal bovine serum (FBS) (Sigma) with or without 4 ng/ml of human recombinant IGF-I were added on top of the 50 μL of antibody. The cells were then placed at 37° C. with 5% CO2 for 5 to 6 days. At the end of the assay, cell viability was measured using the […]-GLO® kit according to the manufacturer's instructions (Promega, Madison, Wis., USA).
For the cell viability assay, MCF7 cells were seeded onto 96-well plates at 2000 cells/well and incubated overnight at 37° C. in a humidified atmosphere of 5% CO2/95% air in RPMI 1640™ medium supplemented with 10% FBS (Sigma, St. Louis, Mo.) and 1% GLUTAMAX™ reagent (Promega, Madison, Wis.). The next day cells were starved in serum-free RPMI 1640™ medium (phenol red-free) for five hours followed by addition of serially diluted human chimeric versions of 9F2, 2B4, and 10H5, as well as h10H5.vX, for one hour. Subsequently, phenol red-free PRMI 1640™ medium supplemented with FBS or IGF-I was added to reach a final concentration of 1% FBS and 1 ng/mL IGF-I. Cells were then incubated with continuous IGF-1R antibody exposure. After five days, the cell viability was then determined using a […]-GLO™ kit (Promega, Madison, Wis.) according to the manufacturer's instructions.

[4] = target: human IGF-1R-ECD (secreted recombinant extracellular domain, amino acids 1-902, tagged with 10 or 12 histidine residues at the carboxyl terminus) (human) (UniProt P08069); assay: BIACORE surface plasmon resonance: IGF-1R immobilized on CM5 chip (about 500 RU), Fab injected 500-3.1 nM, 25 C, 1:1 Langmuir model
[5] = tested on: cynomolgus-monkey IGF-1R; assay: BIACORE surface-plasmon resonance, cynomolgus-monkey IGF-1R; format: binding; conditions: IgG, FIG. 15
Description: Binding affinities of selected antibodies to IGF-1R were determined by surface plasmon resonance measurements on a BIACORE™ 3000 instrument (BIAcore, Inc.). Human, murine, or cynomolgus-monkey IGF-1R was immobilized at a density of about 500 RU on the flow cells of a PIONEER™ CM5 sensor chip. Immobilization was achieved by random coupling through amino groups using a protocol provided by the manufacturer. Sensorgrams were recorded for binding of anti-IGF-1R Fab or IgG to these surfaces by injection of a series of solutions ranging from 500 nM to 3.1 nM and 250 nM to 0.78 nM in two-fold increments, respectively. The signal from the reference cell was subtracted from the observed sensorgram. Kinetic constants were calculated by non-linear regression analysis of the data according to a 1:1 Languir binding model using software supplied by the manufacturer.

[6] = YW95 phage-derived clones displayed as bivalent Fab-Zip on phage, read-out: phage IC50

B1: YW95.3: anti-IGF-1R phage-display clone from VH/VL library; VL SEQ ID NO:66, VH SEQ ID NO:70 (antibody, V domains shown)
VH: EVQLVESGGGLVQPGGSLRLSCAASGFTFSSYAMSWVRQAPGKGLEWVSRISPSGGSTYYADSVKGRFTISADTSKNTAYLQMNSLRAEDTAVYYCAREHYFHWGGMDVWGQGTL
VL: DIQMTQSPSSLSASVGDRVTITCRASQSISSYLAWYQQKPGKAPKLLIYGASSRASGVPSRFSGSGSGTDFTLTISSLQPEDFATYYCQQYYSSPLTFGQGTKVEIKR
modifications: sequence is synthesized
IC50 [1, 6]: 20 nM

B2: YW95.81: anti-IGF-1R phage-display clone from VH/VL library; VL SEQ ID NO:68, VH SEQ ID NO:72 (antibody, V domains shown)
VH: EVQLVESGGGLVQPGGSLRLSCAASGFSFSSQGISWVRQAPGKGLEWVSTISYDGSTYYADSVKGRFTISADTSKNTAYLQMNSLRAEDTAVYYCARQFMLWGKQFGMDVWGQGTL
VL: B1 VL with Y91R, Y92F, S94V, L96F
modifications: sequence is synthesized
IC50 [1, 6]: 20 nM

B3: YW95.6: human phage antibody clone against IGF-1R; VL SEQ ID NO:67, VH SEQ ID NO:71 (antibody, V domains shown)
VH: B1 VH with H100E, F102Y, H103Y, G106A
VL: B1 VL
modifications: sequence is synthesized
IC50 [1, 6]: 20 nM | IGF-1R down-regulation [2]: rapidly down-regulated and reached maximal reduction by eight hours | effect on the MCF7 cell viability compared to the media control ([3]; initial screen, 0.12 to 10 μg/ml): no effect

B4: YW95.87: anti-IGF-1R phage-display clone from VH/VL library; VL SEQ ID NO:69, VH SEQ ID NO:73 (antibody, V domains shown)
VH: B1 VH with H100S, F102Y, H103E, G106A
VL: B1 VL
modifications: sequence is synthesized
IC50 [1, 6]: 20 nM

B5: murine 10H5 Fab (Fab, V domains shown)
VH: QVQLQQPGAELVKPGASVTLSCKASGYTFTRFWIHWVKQRPGQGLEWIGEINPSNGRTNYNENFKNKATLTVDTSSSTAYMQLSSLTSEVSVVYYCARGGRLDQWGQGTT
VL: DIVMTQSQKFMSTSLGDRVSVTCKASQNVGSNVAWYQQKPGQSPEALIYSASYRYSGVPDRFTGSGSGTDFTLTISNVQSEDLAEYFCHQYNNYPYTFGGGTKVEIKR
Kd [4]: 22 nM

B6: h2B4.vX: humanized anti-IGF-1R antibody, direct HVR graft of murine 2B4; VL SEQ ID NO:44, VH SEQ ID NO:47 (antibody, V domains shown)
VH: EVQLVESGGGLVQPGGSLRLSCAASGYNLANYGLNWVRQAPGKGLEWVGWINTNTGAPTYAEEFKGRFTISADTSKNTAYLQMNSLRAEDTAVYYCARSIYYYASRYFNVWGQGTL
VL: DIQMTQSPSSLSASVGDRVTITCRASQDISNYLNWYQQKPGKAPKLLIYYTSRLHSGVPSRFSGSGSGTDFTLTISSLQPEDFATYYCQQGNTLPWTFGQGTKVEIKR
modifications: sequence is synthesized
binding affinity (phage IC50) against IGF-1R-ECD, in words ([1]; monovalent phage-Fab, after HVR grafting): micromolar binding affinity; also recorded: decreased into the micromolar range

B7: h9F2.vX: humanized anti-IGF-1R antibody, direct HVR graft of murine 9F2; VL SEQ ID NO:49, VH SEQ ID NO:51 (antibody, V domains shown)
VH: B6 VH with N28T, L34M, A57K, A61S, E62D, A104G
VL: B6 VL with S30N, N34T
modifications: sequence is synthesized
IC50 ([1]; humanized hybridoma-derived clones displayed on phage as monovalent Fab, read-out: binding affinity (phage IC50) against IGF-1R-ECD): 60 nM | binding to human versus cyno IGF-1R [5]: comparable for human and cyno IGF-1R

B8: murine 2B4 Fab (Fab, V domains shown)
VH: QIQLVQSGPELKKPGETVKISCKASGYNLANYGLNWVKQAPGEGLKWMGWINTNTGAPTYAEEFKGRFVFFLETSASTAYLQINNLSDEDTATYFCARSIYYYASRYFNVWGAGTS
VL: DIQMTQTTSSLSASLGDKVTISCRASQDISNYLNWYQQKPDGTIKLLIYYTSRLHSGIPSRFSGSGSGTDYSLTISNLEQEDIATYFCQQGNTLPWTFGGGTKVEIKR
Kd [4]: 24 nM

B9: chimeric 2B4: human chimeric version of murine 2B4 (antibody, V domains shown)
VH: B8 VH
VL: B8 VL
IGF-1R down-regulation [2]: rapidly down-regulated and reached maximal reduction by eight hours | comparison of inhibitory effect on MCF7 proliferation / viability ([3]; in the presence of IGF-I): equivalent at decreasing the MCF7 cell viability

— patent US20090068110A1, “ANTIBODIES TO INSULIN-LIKE GROWTH FACTOR RECEPTOR” (Genentech, Inc., priority 2006, published 2009)
